Consider 5 molecules from publication PMC7973133, “Escherichia coli FabG 3-ketoacyl-ACP reductase proteins lacking the assigned catalytic triad residues are active enzymes” (The Journal of Biological Chemistry, 2021).

For data set [1], the target named is T1, E. coli FabG (3-ketoacyl-ACP reductase) (Escherichia coli, UniProt P0AEK2).
T1 construct: homotetramer
T1 sequence (P0AEK2 1-244): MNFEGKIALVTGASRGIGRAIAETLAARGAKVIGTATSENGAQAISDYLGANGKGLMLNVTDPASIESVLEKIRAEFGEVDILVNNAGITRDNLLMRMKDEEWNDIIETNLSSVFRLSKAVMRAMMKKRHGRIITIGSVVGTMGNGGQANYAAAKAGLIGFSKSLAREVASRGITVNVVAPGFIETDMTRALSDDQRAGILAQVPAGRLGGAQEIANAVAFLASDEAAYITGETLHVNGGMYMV
The experiment in a line: fluorescence titration. The format is binding. From the text: (§1) fluorescence titration on E. coli FabG (3-ketoacyl-ACP reductase) | wildtype FabG and mutant proteins S138A and Y151F could bind NADPH with Kd values

The target in data set [2] is T2, E. coli FabG (3-ketoacyl-ACP reductase) (Escherichia coli, UniProt P0AEK2, S138A).
T2 construct: homotetramer
Kind of data set: fluorescence titration. The class given is binding.
Excerpt: as §1

For data set [3], the target named is T3, E. coli FabG (3-ketoacyl-ACP reductase) (Escherichia coli, UniProt P0AEK2, Y151F).
T3 construct: homotetramer
Kind of data set: fluorescence titration. The class given is binding.
Excerpt: as §1

Substrate in data set [4]: NC(=O)C1=CN([C@@H]2O[C@H](COP(=O)(O)OP(=O)(O)OC[C@H]3O[C@@H](n4cnc5c(N)ncnc54)[C@H](OP(=O)(O)O)[C@@H]3O)[C@@H](O)[C@H]2O)C=CC1
The experiment in a line: purified protein. The conditions noted are these: acetoacetyl-ACP generated in situ (100 μM ACP, 500 μM malonyl-CoA, 500 μM acetyl-CoA, FabD, FabH), 0.1 M sodium phosphate pH 7.0, varied: cofactor. The format is biochemical, Escherichia coli.

Residue numbers refer to the chain shown, from its start. Names and notes keep the numbering of the source.

For the molecule `NC(=O)C1=CN([C@@H]2O[C@H](COP(=O)(O)OP(=O)(O)OC[C@H]3O[C@@H](n4cnc5c(N)ncnc54)[C@H](OP(=O)(O)O)[C@@H]3O)[C@@H](O)[C@H]2O)C=CC1` [NADPH], the Kd in data set [1] was 13.2 µM; in data set [2], 13.9 µM; in data set [3], 15.8 µM.

B1: E. coli FabG (3-ketoacyl-ACP reductase) (Escherichia coli K-12) (protein)
chain: T1 sequence (P0AEK2 1-244)
notes: homotetramer
Take B1: in data set [4], the Km came out at 99.22 µM.

B2: E. coli FabG (3-ketoacyl-ACP reductase) (Escherichia coli K-12; S138A) (protein)
chain: T1 sequence (P0AEK2 1-244) with S138A
notes: homotetramer
Consider B2, for which the Km in data set [4] was found to be 101.47 µM.

B3: E. coli FabG (3-ketoacyl-ACP reductase) (Escherichia coli K-12; Y151F) (protein)
chain: T1 sequence (P0AEK2 1-244) with Y151F
notes: homotetramer
In the case of B3, in data set [4], the Km came to 147.72 µM.

B4: E. coli FabG (3-ketoacyl-ACP reductase) (Escherichia coli K-12; K155A) (protein)
chain: T1 sequence (P0AEK2 1-244) with K155A
notes: homotetramer
For the molecule B4, the Km in data set [4] came to 166.45 µM.
